This is an account of results in paper PMC7083622.

The term Kd denotes a measure of binding affinity in units of concentration.

Series [1] deals with T1, Zscan4(ZnF) (Mus musculus, UniProt Q80VJ6 369-506).
T1 sequence: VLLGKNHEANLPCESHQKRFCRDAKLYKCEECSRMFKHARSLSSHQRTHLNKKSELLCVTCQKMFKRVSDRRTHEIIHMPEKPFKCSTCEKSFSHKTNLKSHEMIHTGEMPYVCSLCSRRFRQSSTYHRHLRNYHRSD
Description: EMSA. On the technique in general: In EMSA bound probe runs differently from free probe, usually more slowly.

Series [2] addresses T1, Zscan4(ZnF). Put plainly: EMSA. This is another data set of the same source.

B1: (GC)n oligo (dsDNA)
DNA 1: TCGCGCGTCGCGCGTCGCGCGC
DNA 2: GCGCGCGACGCGCGACGCGCGA
Regarding B1, the binding result with Zscan4(ZnF) [1] was “no binding”.

B2: (TG)n oligo (dsDNA)
DNA 1: TGTGTGCATCTGTGTGCATCAT
DNA 2: ATGATGCACACAGATGCACACA
For B2, the Kd with Zscan4(ZnF) [2] is ~500 µM.
